{"source": "the RNAGym collection of RNA variant scans (doi:10.1073/pnas.2313332121)", "parents": {"B1": {"name": "TPR t1 (parent)", "chain": "GACCAAUCUGCCCUCAGAGCUCGAGAACAUCUUCGGAUGCAGAGGAGGCAGGCUUCGGUGGCGCGAUAGCGCCAACGUCCUCAACCUCCAAUGCAUCCCACCACAUGAUGAUGCCUGAAGAGCCUUGGUUUUUUG"}}, "data": [{"variants_of": "B1", "assay": "polymerase ribozyme fitness, log enrichment relative to wild type (log ratio); higher = more active; in vitro selection for triplet polymerase activity", "summary_of_the_method": "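PCR was used to build mutant libraries for each subunit of a heterodimeric triplet polymerase ribozyme, which were then transcribed. A single in vitro selection round, in triplicate, used a frozen incubation at −7 °C and recovered extended constructs by gel excision, streptavidin beads and RT-PCR. Fitness is the logarithm of genotype enrichment relative to wild-type enrichment, averaged over replicates with inverse-variance weights. The logarithm is base 2, and after Illumina sequencing only genotypes with ≥10 input reads and ≥1 read per output were kept.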", "values": [{"variant": "C12A C53U A83C U106G G113U", "polymerase ribozyme fitness (log ratio)": -6.76}, {"variant": "C11U A37C G52C C76U", "polymerase ribozyme fitness (log ratio)": -2.87}, {"variant": "C11U G60A U131G", "polymerase ribozyme fitness (log ratio)": -2.06}, {"variant": "C11U A46G G69U", "polymerase ribozyme fitness (log ratio)": -0.0646}, {"variant": "C12A U14A C28U C85U", "polymerase ribozyme fitness (log ratio)": -3.93}, {"variant": "C12G C31U C49U G51U C70U C101A U109G", "polymerase ribozyme fitness (log ratio)": -6.92}, {"variant": "C11U U21C G63A C82U", "polymerase ribozyme fitness (log ratio)": -1.23}, {"variant": "C12A G113C", "polymerase ribozyme fitness (log ratio)": -2.64}, {"variant": "C12A G113U", "polymerase ribozyme fitness (log ratio)": -2.09}, {"variant": "C12A G48U G71A", "polymerase ribozyme fitness (log ratio)": -2.04}, {"variant": "C12A C40A C70G", "polymerase ribozyme fitness (log ratio)": -4.57}, {"variant": "C12A G117U U131C", "polymerase ribozyme fitness (log ratio)": -4.17}, {"variant": "C12G A46G G128C U131A", "polymerase ribozyme fitness (log ratio)": -2.32}, {"variant": "C12A G61U C70U U81G", "polymerase ribozyme fitness (log ratio)": -4.98}, {"variant": "C12A C22G", "polymerase ribozyme fitness (log ratio)": -2.6}, {"variant": "C12A G51A A91G A119G G120A", "polymerase ribozyme fitness (log ratio)": -2.39}, {"variant": "C12G C123G", "polymerase ribozyme fitness (log ratio)": 1.55}, {"variant": "C12A C56A C70U C102A C104U", "polymerase ribozyme fitness (log ratio)": -2.58}, {"variant": "C12A C49A G61A C82A", "polymerase ribozyme fitness (log ratio)": -0.648}, {"variant": "C12G U14A U38G C76U C85G", "polymerase ribozyme fitness (log ratio)": -3.19}, {"variant": "C11U G17U G48A C124G", "polymerase ribozyme fitness (log ratio)": -1.88}, {"variant": "C12A U81C", "polymerase ribozyme fitness (log ratio)": -1.73}, {"variant": "C12G A46G G63C C115G", "polymerase ribozyme fitness (log ratio)": -4.6}, {"variant": "C11U G77U A111G U112C G122A", "polymerase ribozyme fitness (log ratio)": -0.084}, {"variant": "C12G A74U", "polymerase ribozyme fitness (log ratio)": -0.266}, {"variant": "C11U C73A", "polymerase ribozyme fitness (log ratio)": -0.524}, {"variant": "C12A C20A G61C", "polymerase ribozyme fitness (log ratio)": -4.95}, {"variant": "C12A G44C C64U U125G", "polymerase ribozyme fitness (log ratio)": -2.52}, {"variant": "C12G C20G C56U C79U C82U A91U G107C G117A", "polymerase ribozyme fitness (log ratio)": -3.77}, {"variant": "C12G A16G C53A C80U", "polymerase ribozyme fitness (log ratio)": -5.01}, {"variant": "C11U G17U", "polymerase ribozyme fitness (log ratio)": -4.34}, {"variant": "C12A A18C", "polymerase ribozyme fitness (log ratio)": -1.6}, {"variant": "C12G C70A C82U A105U U106A U109G", "polymerase ribozyme fitness (log ratio)": -4.43}, {"variant": "C11U U32A A46C G48A C72G U112G", "polymerase ribozyme fitness (log ratio)": -5.51}, {"variant": "C12A G35A C49A", "polymerase ribozyme fitness (log ratio)": -5.9}, {"variant": "C12A C88G", "polymerase ribozyme fitness (log ratio)": -1.56}, {"variant": "C12A C28U", "polymerase ribozyme fitness (log ratio)": -1.82}, {"variant": "C12G C31U G61A", "polymerase ribozyme fitness (log ratio)": -5.13}, {"variant": "C12A G35U C40U G45A C53G G63C G117C G127U", "polymerase ribozyme fitness (log ratio)": -6.85}, {"variant": "C12G C73A C88U G122A", "polymerase ribozyme fitness (log ratio)": -1.14}, {"variant": "C12G C40U C49U G65C C114G", "polymerase ribozyme fitness (log ratio)": -6.07}, {"variant": "C12G G60A C85G G117A U131A", "polymerase ribozyme fitness (log ratio)": -1.29}, {"variant": "C12G G47C G52A C64U C123A", "polymerase ribozyme fitness (log ratio)": -3.61}, {"variant": "C11U G58A G71U A90G U116C", "polymerase ribozyme fitness (log ratio)": -2.7}, {"variant": "C12G C124A", "polymerase ribozyme fitness (log ratio)": 1.61}, {"variant": "C11U G48A", "polymerase ribozyme fitness (log ratio)": -1.69}, {"variant": "C11U G48U", "polymerase ribozyme fitness (log ratio)": -0.841}, {"variant": "C12A U14G G71U", "polymerase ribozyme fitness (log ratio)": -2.39}, {"variant": "C11U C15A G45U C72A U129A", "polymerase ribozyme fitness (log ratio)": -5.41}, {"variant": "C11U U14G G19U A29G C31U U32C C72G A111U U129A", "polymerase ribozyme fitness (log ratio)": -7.29}, {"variant": "C11U C89A U112G", "polymerase ribozyme fitness (log ratio)": -1.71}, {"variant": "C12A U14G", "polymerase ribozyme fitness (log ratio)": -1.01}, {"variant": "C12G U14C U59G", "polymerase ribozyme fitness (log ratio)": -1.18}, {"variant": "C12A U126C", "polymerase ribozyme fitness (log ratio)": -2.01}, {"variant": "C12A C97A", "polymerase ribozyme fitness (log ratio)": -4.79}, {"variant": "C12G C28U C53A", "polymerase ribozyme fitness (log ratio)": -2.29}, {"variant": "C12G G61A C62G U87A G113U U125G", "polymerase ribozyme fitness (log ratio)": -7.34}, {"variant": "C12A G61U C104U A108C A121U", "polymerase ribozyme fitness (log ratio)": -3.79}, {"variant": "C12G A41G C72U C102U", "polymerase ribozyme fitness (log ratio)": -2.31}, {"variant": "C12A C85U", "polymerase ribozyme fitness (log ratio)": -1.04}, {"variant": "C11U C104G", "polymerase ribozyme fitness (log ratio)": -6.74}, {"variant": "C11U C104A", "polymerase ribozyme fitness (log ratio)": -2.66}, {"variant": "C12A C49A C88A G110U", "polymerase ribozyme fitness (log ratio)": -1.74}, {"variant": "C11U U14A A84G", "polymerase ribozyme fitness (log ratio)": -4.24}, {"variant": "C12G G47A G48C A68G A103G A105C U106A G117U G120C", "polymerase ribozyme fitness (log ratio)": -7.36}, {"variant": "C11U C73G C102A A103U", "polymerase ribozyme fitness (log ratio)": -5.8}, {"variant": "C12G G69U U81G A90U G127U", "polymerase ribozyme fitness (log ratio)": -4.07}, {"variant": "C11U C114U U132A", "polymerase ribozyme fitness (log ratio)": -3.3}, {"variant": "C11U G39U C86G", "polymerase ribozyme fitness (log ratio)": -2.92}, {"variant": "C12A C99G G110U", "polymerase ribozyme fitness (log ratio)": -6.29}, {"variant": "C12G C72G C104U C123U C124A", "polymerase ribozyme fitness (log ratio)": 2.06}, {"variant": "C11U A43U C70U C98U G122U", "polymerase ribozyme fitness (log ratio)": -4.47}, {"variant": "C11U A46C G51U C86G C102A", "polymerase ribozyme fitness (log ratio)": -8.49}, {"variant": "C12A G61A C64U", "polymerase ribozyme fitness (log ratio)": -4}, {"variant": "C12G C80U", "polymerase ribozyme fitness (log ratio)": 0.429}, {"variant": "C12G U30C A41U G48A", "polymerase ribozyme fitness (log ratio)": -5.05}, {"variant": "C12A U130C U131C", "polymerase ribozyme fitness (log ratio)": -0.148}, {"variant": "C12G C15G A46U A74G U78A C114A", "polymerase ribozyme fitness (log ratio)": -6.73}, {"variant": "C11U G61A U112C", "polymerase ribozyme fitness (log ratio)": 1.14}, {"variant": "C12A G23A C82G", "polymerase ribozyme fitness (log ratio)": -7.42}, {"variant": "C12A A105G C124U", "polymerase ribozyme fitness (log ratio)": -0.99}, {"variant": "C12A C88G C89A U116C C124A G127A", "polymerase ribozyme fitness (log ratio)": -3.44}, {"variant": "C12G C40A", "polymerase ribozyme fitness (log ratio)": -1.14}]}]}
